# Test results published in patent publication US20090068224A1, “METHOD TO IDENTIFY POLYPEPTIDE TOLL-LIKE RECEPTOR (TLR) LIGANDS” (VAXINNATE CORPORATION, priority 2005, published 2009).
# Assays:
# TLR2 = TLR2 (Homo sapiens, UniProt O60603); experiment: T7 phage biopanning, 4 rounds (negative on parental HEK293, positive on 293.hTLR2 cells); share of 109 sequenced clones
# [1] = target: human TLR2 and human CD14 (293.hTLR2.hCD14 cells) (Homo sapiens, UniProt O60603); experiment: Biopanning of pooled 10, 15 and 20 amino acid random peptide phage display libraries, sequencing of enriched clones; type: binding; details: percentage of all clones sequenced having given peptide sequence; 96 clones picked after 4 rounds of biopanning, TLRlo parental HEK293, TLRhi 293.hTLR2.hCD14
# Chain of human TLR2 and human CD14 (293.hTLR2.hCD14 cells) (O60603 21-784): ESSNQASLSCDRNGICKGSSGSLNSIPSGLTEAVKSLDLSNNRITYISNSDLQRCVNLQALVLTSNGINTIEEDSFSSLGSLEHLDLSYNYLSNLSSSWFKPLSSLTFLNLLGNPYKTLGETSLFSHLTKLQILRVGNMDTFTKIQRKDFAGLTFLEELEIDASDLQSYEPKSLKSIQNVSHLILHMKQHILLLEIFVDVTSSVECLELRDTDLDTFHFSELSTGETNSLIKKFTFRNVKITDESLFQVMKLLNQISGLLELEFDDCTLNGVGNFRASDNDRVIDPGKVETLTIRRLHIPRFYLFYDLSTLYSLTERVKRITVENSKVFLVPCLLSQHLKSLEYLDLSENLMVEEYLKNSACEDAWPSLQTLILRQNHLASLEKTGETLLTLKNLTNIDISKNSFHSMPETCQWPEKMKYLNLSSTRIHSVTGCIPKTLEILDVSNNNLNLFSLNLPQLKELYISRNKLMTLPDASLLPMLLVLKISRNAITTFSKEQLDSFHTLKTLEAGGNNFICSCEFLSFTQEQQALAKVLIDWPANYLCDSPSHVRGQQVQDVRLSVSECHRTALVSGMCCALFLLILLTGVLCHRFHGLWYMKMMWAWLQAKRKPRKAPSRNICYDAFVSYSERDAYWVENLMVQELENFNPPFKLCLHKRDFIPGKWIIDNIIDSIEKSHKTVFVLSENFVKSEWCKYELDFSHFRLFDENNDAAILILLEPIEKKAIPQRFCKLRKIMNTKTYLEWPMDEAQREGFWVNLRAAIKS
# Description: (§1) Screening of phage display libraries by biopanning: Phage display libraries are screened for peptide TLR ligands according to the following procedure. The phage display library is incubated on an in vitro cultured monolayer of cells that express minimal amounts of the TLR of interest (TLR^lo) in order to reduce non-specific binding, and then transferred to an in vitro suspension culture of cells expressing the relevant TLR (TLR^hi) to capture phage with binding specificity for the target TLR. After several washes with PBS to remove phage remaining unbound to the TLR^hi cells, TLR^hi cell-bound phages are harvested by centrifugation. The TLR^hi cells with bound phage are incubated with E. coli (strain BLT5615) in order to amplify the phage. This process is repeated three or more times to yield a phage population enriched for high affinity binding to the target TLR.
# Libraries of phage displaying random peptides 10, 15 and 20 amino acids in length were constructed essentially as described for the pentameric random peptide library, except that the phosphorylated oligonucleotides used were 30, 45, and 60 nucleotides in length, respectively.
# (§2) Sequencing of phage inserts: Individual phage clones from the enriched pool are isolated via plaque formation in E. coli. The DNA inserts of individual phage are amplified in PCR using the commercially available primers T7SelectUP (5′-GGAGCTGTCGTATTCCAGTC-3′; SEQ ID NO: 37; Novagen, catalog #70005) and T7SelectDOWN (5′-AACCCCTCAAGACCCGTTTA-3′; SEQ ID NO: 38; Novagen, catalog #70006). The PCR product DNA is purified using the QIAquick 96 PCR Purification Kit (Qiagen) and subjected to DNA sequencing using T7SelectUP and T7SelectDOWN primers.
# We also constructed 10, 15, and 20 amino acid random peptide phage display libraries in T7SELECT phage. These phage display libraries were pooled in equal proportion and then screened by biopanning as described in Example 3. […] Of the 96 clones analyzed three peptide sequences were particularly abundant (see Table 8). […]
# [2] = target: human TLR2 (293.hTLR2 cells) (Homo sapiens, UniProt O60603); experiment: Biopanning of pentameric random peptide phage display library, sequencing of enriched clones; type: binding; details: percentage of all clones sequenced (n = 109) having given peptide sequence, after 4 rounds of biopanning, TLRlo parental HEK293, TLRhi 293.hTLR2
# Chain of human TLR2 (293.hTLR2 cells) (O60603 21-784): as the sequence (O60603 21-784) above
# Description: as §1
# In each round of biopanning, the harvested phage that are bound to TLR^hi cells can be titred prior to amplification, amplified, and then titred again prior to initiation of the next cycle of biopanning. In this way, it is possible to determine the percent (%) of input phage in each cycle that are ultimately harvested from the TLR^hi cells. This calculation provides a round-by-round measure of enrichment within the phage display library for phage that display TLR-binding peptides.
# Construction of random peptide libraries (RPL): A pentameric random peptide phage display library of T7SELECT phage was constructed essentially as described in Example 2. A pair of phosphorylated oligonucleotides with the sequence NNBNNBNNBNNBNNB (where N=A/G/C/T, B=G/C/T) flanked at the 5′ and 3′ ends by EcoRI and HindIII sites, respectively, was synthesized. Equimolar amounts of the oligonucleotides were annealed by heating for 5 min at 90° C. with gradual cooling to 25° C. The double stranded DNA was ligated to T7Select 10-3 bacteriophage vector (Novagen) that had been previously digested with EcoRI and HindIII. The ligation reactions were packaged in vitro and titred using the host E. coli strain […] that was grown in M9TB (Novagen), generating 2.5×10^7 clones, representing about 75% coverage of the library. The recombinant phage were subjected to several rounds of amplification to generate a total library of 1.35×10^12 phage, ensuring representation in excess of 5×10^4 fold for each clone in the library.
# as §2
# We constructed a pentameric random peptide phage display library in T7 phage. This phage library was then screened by biopanning as described in Example 3. For this screen, the TLR^lo cells were parental HEK293 (TLR2^−) cells, and the TLR^hi cells were HEK293 cells ectopically expressing human TLR2 (293.hTLR2, see Example 1, above). Phage bound to 293.hTLR2 cells were harvested, titred, and amplified prior to initiation of the each cycle of panning. In this way, it was possible to determine the % of input phage in each cycle that was ultimately harvested from the TLR2^hi cells.
# After 4 rounds of biopanning, individual phage clones from the enriched pool were isolated via plaque formation in E. coli. […] phage clones were randomly picked for sequencing. Of the 109 individual clones examined the motif DPDSG was predominant (see Tables 6 and 7). […]
# [3] = peptides with identity to known microbial proteins
# [4] = peptides with no homology to known proteins
# Chain of TLR2 (O60603 21-784 limits assumed): as the sequence (O60603 21-784) above
substance,measurement,setting,value
EVCAP (peptide),% ABUNDANCE,TLR2,0.92%
RWGYHLRDRKYKGVRSHKGVPR [peptide TLR2 ligand from phage display],% Abundance,[1],19.4%
IYKLA [peptide TLR2 ligand from phage display],% Abundance,[2]; [3],0.9%
KCQSF (peptide),% ABUNDANCE,TLR2,0.92%
KGWF [peptide TLR2 ligand from phage display],% Abundance,[2]; [3],0.9%
IMWFP [peptide TLR2 ligand from phage display],% Abundance,[2]; [3],0.9%
SGGLF (peptide),% ABUNDANCE,TLR2,0.92%
NRTVF (peptide),% ABUNDANCE,TLR2,0.92%
MRRIL (peptide),% ABUNDANCE,TLR2,0.92%
VGKND (peptide),% ABUNDANCE,TLR2,0.9%
VGKND [peptide TLR2 ligand from phage display],% Abundance,[2]; [3],0.9%
RVVAP (peptide),% ABUNDANCE,TLR2,0.9%
KYMPH (peptide),% ABUNDANCE,TLR2,0.9%
RGGF [peptide TLR2 ligand from phage display],% Abundance,[2]; [4],0.92%
RGGSK (peptide),% ABUNDANCE,TLR2,3.67%
IMRHP [peptide TLR2 ligand from phage display],% Abundance,[2]; [4],0.92%
AGCFS (peptide),% ABUNDANCE,TLR2,0.92%
ADTHQ (peptide),% ABUNDANCE,TLR2,0.9%
KYMPH [peptide TLR2 ligand from phage display],% Abundance,[2]; [3],0.9%
LRQGR (peptide),% ABUNDANCE,TLR2,0.9%
SGGLF [peptide TLR2 ligand from phage display],% Abundance,[2]; [4],0.92%
NYRRW [peptide TLR2 ligand from phage display],% Abundance,[2]; [3],0.9%
VSEGV (peptide),% ABUNDANCE,TLR2,3.67%
GGKLS [peptide TLR2 ligand from phage display],% Abundance,[2]; [4],0.92%
SHIAL [peptide TLR2 ligand from phage display],% Abundance,[2]; [3],0.9%
PESGV [peptide TLR2 ligand from phage display],% Abundance,[2]; [4],0.92%
SHIAL (peptide),% ABUNDANCE,TLR2,0.9%
NPPTT [peptide TLR2 ligand from phage display],% Abundance,[2]; [4],0.92%
LRQGR [peptide TLR2 ligand from phage display],% Abundance,[2]; [3],0.9%
FCGLG [peptide TLR2 ligand from phage display],% Abundance,[2]; [4],0.92%
MGTLP (peptide),% ABUNDANCE,TLR2,1.8%
GPLLH [peptide TLR2 ligand from phage display],% Abundance,[2]; [3],0.9%
KGWF (peptide),% ABUNDANCE,TLR2,0.9%
THKPK (peptide),% ABUNDANCE,TLR2,0.9%
KCQSF [peptide TLR2 ligand from phage display],% Abundance,[2]; [4],0.92%
CGPKL (peptide),% ABUNDANCE,TLR2,0.92%
ADTHQ [peptide TLR2 ligand from phage display],% Abundance,[2]; [3],0.9%
ACGVY (peptide),% ABUNDANCE,TLR2,0.92%
HLLPG [peptide TLR2 ligand from phage display],% Abundance,[2]; [3],0.9%
IHVVP (peptide),% ABUNDANCE,TLR2,0.9%
IMWFP (peptide),% ABUNDANCE,TLR2,0.9%
CGPKL [peptide TLR2 ligand from phage display],% Abundance,[2]; [4],0.92%
HLLPG (peptide),% ABUNDANCE,TLR2,0.9%
MFGVP [peptide TLR2 ligand from phage display],% Abundance,[2]; [3],0.9%
MGTLP [peptide TLR2 ligand from phage display],% Abundance,[2]; [3],1.8%
GPLLH (peptide),% ABUNDANCE,TLR2,0.9%
GGKLS (peptide),% ABUNDANCE,TLR2,0.92%
KGGVGPVRRSSRLRRTTQPG [peptide TLR2 ligand from phage display],% Abundance,[1],33.3%
MISS (peptide),% ABUNDANCE,TLR2,0.92%
THKPK [peptide TLR2 ligand from phage display],% Abundance,[2]; [3],0.9%
GRRGLCRGCRTRGRIKQLQSAHK [peptide TLR2 ligand from phage display],% Abundance,[1],16.1%
CVWLQ (peptide),% ABUNDANCE,TLR2,0.9%
NRFGL [peptide TLR2 ligand from phage display],% Abundance,[2]; [4],0.92%
IYKLA (peptide),% ABUNDANCE,TLR2,0.9%
NYRRW (peptide),% ABUNDANCE,TLR2,0.9%
IGRFR (peptide),% ABUNDANCE,TLR2,2.7%
IMRHP (peptide),% ABUNDANCE,TLR2,0.92%
SRHGR (peptide),% ABUNDANCE,TLR2,0.92%
RGGF (peptide),% ABUNDANCE,TLR2,0.92%
AVRLS [peptide TLR2 ligand from phage display],% Abundance,[2]; [4],0.92%
RGGSK [peptide TLR2 ligand from phage display],% Abundance,[2]; [4],3.67%
MISS [peptide TLR2 ligand from phage display],% Abundance,[2]; [4],0.92%
MFGVP (peptide),% ABUNDANCE,TLR2,0.9%
PESGV (peptide),% ABUNDANCE,TLR2,0.92%
AVRLS (peptide),% ABUNDANCE,TLR2,0.92%
VSEGV [peptide TLR2 ligand from phage display],% Abundance,[2]; [4],3.67%
RVVAP [peptide TLR2 ligand from phage display],% Abundance,[2]; [3],0.9%
NRTVF [peptide TLR2 ligand from phage display],% Abundance,[2]; [4],0.92%
IGRFR [peptide TLR2 ligand from phage display],% Abundance,[2]; [3],2.7%
CVWLQ [peptide TLR2 ligand from phage display],% Abundance,[2]; [3],0.9%
EVCAP [peptide TLR2 ligand from phage display],% Abundance,[2]; [4],0.92%
NRFGL (peptide),% ABUNDANCE,TLR2,0.92%
SRHGR [peptide TLR2 ligand from phage display],% Abundance,[2]; [4],0.92%
FCGLG (peptide),% ABUNDANCE,TLR2,0.92%
AWAGT [peptide TLR2 ligand from phage display],% Abundance,[2]; [3],0.9%
NPPTT (peptide),% ABUNDANCE,TLR2,0.92%
MRRIL [peptide TLR2 ligand from phage display],% Abundance,[2]; [4],0.92%
IHVVP [peptide TLR2 ligand from phage display],% Abundance,[2]; [3],0.9%
AGCFS [peptide TLR2 ligand from phage display],% Abundance,[2]; [4],0.92%
AWAGT (peptide),% ABUNDANCE,TLR2,0.9%
ACGVY [peptide TLR2 ligand from phage display],% Abundance,[2]; [4],0.92%
